Measurements as given in PMC7755189, “Phosphorylation of seryl-tRNA synthetase by ATM/ATR is essential for hypoxia-induced angiogenesis”.

Target: SerRS WT (Homo sapiens, UniProt P49591 1-514)
Assay: EMSA; EMSA: 20 mM Tris-HCl pH 8.0, 60 mM KCl, 5 mM MgCl2, 0.1 mg/mL BSA, 10 ng/uL poly(dG-dC), 1 mM DTT, 30 min, room temperature; 0.08 pmol labeled DNA; 5% native PAGE
Details: protein: recombinant; tags: C-terminal His6; chain copies: 2; label: 5'-32P; annealed oligonucleotides

SerRS WT, sequence (P49591 whole entry): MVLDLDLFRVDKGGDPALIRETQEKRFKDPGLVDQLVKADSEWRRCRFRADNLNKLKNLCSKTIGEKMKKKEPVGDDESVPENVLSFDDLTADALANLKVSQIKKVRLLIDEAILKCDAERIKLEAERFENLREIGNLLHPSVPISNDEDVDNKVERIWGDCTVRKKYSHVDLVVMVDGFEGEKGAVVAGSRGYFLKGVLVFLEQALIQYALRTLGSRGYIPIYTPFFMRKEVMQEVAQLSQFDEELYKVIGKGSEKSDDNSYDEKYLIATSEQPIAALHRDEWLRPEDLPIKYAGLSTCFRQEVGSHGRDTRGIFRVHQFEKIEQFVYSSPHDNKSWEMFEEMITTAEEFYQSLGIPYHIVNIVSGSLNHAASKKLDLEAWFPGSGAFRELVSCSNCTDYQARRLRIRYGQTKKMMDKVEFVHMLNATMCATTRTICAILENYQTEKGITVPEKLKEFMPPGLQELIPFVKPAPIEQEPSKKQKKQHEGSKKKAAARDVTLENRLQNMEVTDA

B1: VEGFA promoter SerRS binding site 27 bp (dsDNA)
DNA 1: GGCGGGGCGGAGCCATGCGCCCCCCCC
DNA 2: GGGGGGGGCGCATGGCTCCGCCCCGCC
binding result: binds
